Assay results published in the supplement of paper PMC10567573.
± gives the standard deviation.

Assay: protein stability index of a GFP-peptide fusion (GPS, HEK-293T) (PSI 1-6); higher = more stable
[1] = treatment: DMSO, c terminus: a fixed tail appended
[2] = treatment: MLN4924 1 uM, 8 h, c terminus: a fixed tail appended
[3] = treatment: DMSO, c terminus: native
[4] = treatment: MLN4924 1 uM, 8 h, c terminus: native
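Also: 24-mer peptide tiles fused after GFP, lentivirally expressed, FACS-sorted into six equal bins by GFP/DsRed ratio, decoded by Illumina sequencing, PSI is the read-weighted mean bin number.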

| Sequence | protein stability index [1] | protein stability index [2] | protein stability index [3] | protein stability index [4] |
| --- | --- | --- | --- | --- |
| SGNGDFGDWSAFNQAPSGPVASSG [CLINT1] | 4.37 ± 0.13 | 4.38 ± 0.11 |  |  |
| SGRARQQDEEMLELPAPAEVAAKN [MLH1] | 5.52 ± 0.29 | 5.2 ± 0.17 |  |  |
| SGRFIVIIPRTVIDGLDLLKKEHP [SMG5] | 2.9 ± 0.55 | 3.31 ± 0.78 |  |  |
| SGRVKRERDREREPEAASSRGSPV [USP39] | 5.12 ± 0.18 | 5.33 ± 0.11 |  |  |
| SGSRVRVGFRLCNSTGGDCFYRGY [SCNN1D] | 2.18 ± 0.21 | 2.38 ± 0.49 |  |  |
| SHQCAHCEKTFNRKDHLKNHLQTH [PLAGL1] | 5.03 ± 0.15 | 5.04 ± 0.14 |  |  |
| SHQYDRIYCGAGVQKDHENYMKIL [PCMTD1] | 2.38 ± 0.16 | 2.39 ± 0.2 |  |  |
| SHWDLNHTHPSACQGQRLFEKLLQ [PLD5] | 2.56 ± 0.43 | 2.54 ± 0.3 |  |  |
| SIGRRRTELRRSGSSRSPGSKARA [PLEKHN1] | 4.88 ± 0.47 | 4.95 ± 0.27 |  |  |
| SIPLMGFEFEVRVCDSCHEAITDE [WDFY2] | 3.38 ± 0.17 | 3.54 ± 0.32 |  |  |
| SITFTTGLEAPRDLEAKEVTPRTA [TNXB] | 5.22 ± 0.37 | 5.16 ± 0.3 |  |  |
| SIYIHVYFTKSGFHPDPRQKALYR [CLPTM1] | 2.86 ± 0.6 | 2.76 ± 0.22 |  |  |
| SKNDNGKPDSVGLPPCAVRNLQDL [PCMTD1] | 4.85 ± 0.44 | 4.58 ± 0.35 |  |  |
| SKPCDLHCTTVDGQRQLMVPARDG [ADAMTSL2] | 4.33 ± 0.11 | 4.37 ± 0.36 |  |  |
| SKSCMRAVLEYLYTGMFTSSPDLD [RHOBTB2] | 2.28 ± 0.039 | 2.05 ± 0.49 |  |  |
| SLALVQNGDVSAPSAILRTPESTK [ANKRD40] | 4.07 ± 0.36 | 4.06 ± 0.17 |  |  |
| SLSFEDFLDLLSVFSDTATPDIKS [CIB1] | 2.26 ± 0.35 | 2.29 ± 0.33 |  |  |
| SLVHMDIKPSNIFISRTSIPNAAS [WEE1] | 2.43 ± 0.24 | 2.48 ± 0.21 |  |  |
| SLYGENSNSLSSAEPLKEDKPVTG [ATF6] | 4.54 ± 0.1 | 4.58 ± 0.22 |  |  |
| SMNFSMMSTNTVGLGLPMSRSQNT [CLINT1] | 3.19 ± 0.36 | 3.44 ± 0.38 |  |  |
| SMPCSTDKENGENVGLESKYLKKR [SASS6] | 4.62 ± 0.4 | 5.08 ± 0.19 |  |  |
| SNPGPVPGSSSGPVLGSSSGAGHG [SPAG8] | 5.051 ± 0.027 | 4.7 ± 0.35 |  |  |
| SNSCQDSTDTESNNEEQRSGLIYL [IKZF1] | 4.67 ± 0.27 | 4.735 ± 0.023 |  |  |

| Sequence | protein stability index [1] | protein stability index [2] | protein stability index [3] | protein stability index [4] |
| --- | --- | --- | --- | --- |
| SPGGTLMDLSERQEVSSVRSLSST [DLC1] | 4.61 ± 0.24 | 4.85 ± 0.2 |  |  |
| SPIKPGDIKRGIPNYEFKLGKITF [UFD1] | 2.65 ± 0.34 | 2.52 ± 0.39 |  |  |
| SPLCLIPMVTSPREEQQLLASTSK [KCTD13] | 4.1 ± 0.29 | 4.37 ± 0.06 |  |  |
| SPLEEKHDQCKCENLIMFQNLANE [MATN2] | 4.365 ± 0.004 | 4.05 ± 0.69 |  |  |
| SPMYFFLASLSFIDTVYSTAFAPK [OR4A15] | 3.01 ± 0.35 | 2.92 ± 0.54 |  |  |
| SPQEDGQIMFDVEMHTSRDHSSQS [BNIP3L] | 5.21 ± 0.2 | 5.21 ± 0.13 |  |  |
| SQDALRVVSTSGEQMKVYKCEHCR [IKZF1] | 4.29 ± 0.33 | 4.38 ± 0.3 |  |  |
| SQKLNFREHAKARVDHGAEIITQS [MAP2] | 3.98 ± 0.28 | 4.34 ± 0.38 |  |  |
| SRIKGWWVFHHYVSTFLSGVMLTW [TMEM120A] | 2.55 ± 0.24 | 2.37 ± 0.36 |  |  |
| SRISHLVLPVQPVSSIEEQGCLF [TOR1AIP2] |  |  | 2.63 ± 0.44 | 2.62 ± 0.22 |
| SRRFEAVGWWALLALVTLLSFATR [POMT2] | 2.29 ± 0.28 | 2.09 ± 0.33 |  |  |
| SSGRKWGDDAPKEEVDTGAVNLIE [INTS4] | 5.22 ± 0.6 | 5.21 ± 0.13 |  |  |
| SSKFYDLFLMECEESPNGSEGACE [RHOBTB1] | 3.72 ± 0.74 | 3.79 ± 0.1 |  |  |
| SSLFSVEANSSNSQKNEKALTNIQ [C8orf76] | 4.93 ± 0.2 | 4.73 ± 0.21 |  |  |
| SSNFHINVEESVDGQVVSSHKREI [KRT15] | 4.7 ± 0.18 | 4.68 ± 0.18 |  |  |
| SSSGDLADLENEDIFPELDDILYH [DLC1] | 4.77 ± 0.24 | 4.76 ± 0.2 |  |  |
| SSTKPPKSRRKAALSSPRSRKNAT [INTS3] | 4.89 ± 0.19 | 5.04 ± 0.14 |  |  |
| SSTNFAMKRDVQEGQARCLAHLGR [C8orf76] | 3.66 ± 0.058 | 3.68 ± 0.28 |  |  |
| SSYFDSFQEAQIKRKARNEGRNRR [CDKL4] | 3.93 ± 0.76 | 4.96 ± 0.35 |  |  |
| STQMFQTKRCFRLAPTFSNLLLQP [SMG5] | 2.16 ± 0.4 | 2.12 ± 0.2 |  |  |
| STVTPVPGQEKGSALEGRADTTTG [EHMT1] | 5.51 ± 0.32 | 5.53 ± 0.24 |  |  |
| SVDIVSSHWDLNHTHPSACQGQRL [PLD5] | 3.64 ± 0.16 | 3.82 ± 0.086 |  |  |
| SVTGHTNIVEYLIQEQPGQEQVAG [FEM1A] | 4.45 ± 0.073 | 4.57 ± 0.17 |  |  |

| Sequence | protein stability index [1] | protein stability index [2] | protein stability index [3] | protein stability index [4] |
| --- | --- | --- | --- | --- |
| TAAGLMHTFNAHAATDITGFGILG [SEPHS2] | 2.43 ± 0.51 | 2.44 ± 0.074 |  |  |
| TAAMRCMCPLYDPNRQLWIELAPL [GAN] | 2.22 ± 0.51 | 2.16 ± 0.55 |  |  |
| TADHRIYSYVVSRPQPRGLLGWGY [FAF2] | 2.16 ± 0.37 | 2.21 ± 0.22 |  |  |
| TCPQCHRSLILDDRGLRGFPKNRV [TRIM9] | 2.74 ± 0.22 | 3.16 ± 0.41 |  |  |
| TDAKKREALYAQDPSTGCYMYYFQ [KMT5A] | 2.48 ± 0.22 | 2.68 ± 0.35 |  |  |
| TETDSLVSAQRERPRRRDGPEHAT [DVL3] | 5.24 ± 0.13 | 5.33 ± 0.3 |  |  |
| TEYQKQLLAAQVQLQCSPAELQAE [FBF1] | 4.39 ± 0.31 | 4.3 ± 0.2 |  |  |
| THLILHRDLKTQNILLDKHRMVVK [NEK8] | 2.78 ± 0.11 | 2.83 ± 0.17 |  |  |
| TKLSLLAIHGYTVWAHNLIAIARL [FBXO33] | 3.19 ± 0.36 | 3.22 ± 0.23 |  |  |
| TKRCFRLAPTFSNLLLQPTTNPHT [SMG5] | 2.41 ± 0.22 | 2.59 ± 0.29 |  |  |
| TKVVYLASETFNYSAIDRVKSRGK [PI4K2A] | 2.85 ± 0.18 | 3.17 ± 0.31 |  |  |
| TLIVVDASGLGLEITTQFLIYASY [SLC19A2] | 3.32 ± 0.54 | 3.32 ± 0.4 |  |  |
| TLQQFNIKLRPPGAEKPSWLEEQ [ARFIP2] |  |  | 3.55 ± 0.34 | 3.62 ± 0.35 |
| TLRPTDSQSHCYRTCFSPASDGSD [PCDHGC5] | 3.93 ± 0.25 | 4.04 ± 0.28 |  |  |
| TLRSHLKSFSMAKGLNARMMRGLS [RAB40A] | 2.47 ± 0.19 | 2.78 ± 0.24 |  |  |
| TLVSSGSGTMGAAKVTGEVLDILT [FLOT1] | 2.97 ± 0.44 | 2.91 ± 0.49 |  |  |
| TLWDVFGANKEVQELLERGLLQLD [RSAD1] | 2.33 ± 0.25 | 2.64 ± 0.11 |  |  |
| TLWKHQFAWPFYQPVDAIKLNLPD [BRD3] | 2.46 ± 0.63 | 2.3 ± 0.13 |  |  |
| TMQLFSKQNPSRQEVTKLQQQVKT [FBXO28] | 3.74 ± 0.2 | 3.75 ± 0.28 |  |  |
| TNFVSRYDPRFNSWIQLPPMQERR [KLHL14] | 3.22 ± 0.084 | 3.34 ± 0.31 |  |  |
| TNFVVQVSVFIGVLIDLWKITKVM [CLPTM1] | 3.1 ± 0.67 | 3.39 ± 0.72 |  |  |
| TPMATKRSGAGVALLNDHIYVVGG [KLHL12] | 2.91 ± 0.26 | 2.71 ± 0.31 |  |  |
| TPMRVALAGTFHYYSCERAKKAMG [NSDHL] | 2.48 ± 0.5 | 2.38 ± 0.16 |  |  |

| Sequence | protein stability index [1] | protein stability index [2] | protein stability index [3] | protein stability index [4] |
| --- | --- | --- | --- | --- |
| TPPLKNVRKKRFRKTQKKVPDVKE [TAF7L] | 4.84 ± 0.37 | 4.73 ± 0.22 |  |  |
| TPYVRWNYVAKNFAQALGCVLYAC [SOAT2] | 2.7 ± 0.84 | 2.41 ± 0.34 |  |  |
| TSAAALSPMSAATLGGLNPSPSEV [SMTNL2] | 4.61 ± 0.21 | 4.62 ± 0.31 |  |  |
| TSDLGTTDVQKKKLVDAIVSGDTS [RIPK4] | 4.97 ± 0.21 | 5.09 ± 0.12 |  |  |
| TSPWSECTKTCGVGVRMRDVKCYQ [ADAMTSL2] | 2.81 ± 0.21 | 2.44 ± 0.38 |  |  |
| TSTKTDSEEGSWAQTLAYGDMNHE [PPFIA4] |  | 4.66 ± 0.54 |  |  |
| TTSPNVLWPTPGHLSPLVVHRQLS [ESR2] | 2.85 ± 0.29 | 2.72 ± 0.41 |  |  |
| TVKFANNPSQKTGQALLTHLYQSS [ELAVL3] | 3.01 ± 0.22 | 3.03 ± 0.38 |  |  |
| TVQSRPRIDGKLDSPSRSPSKVEV [C2CD2L] | 4.78 ± 0.21 | 4.65 ± 0.37 |  |  |
| TWRHRETLIIAVLVSASIANLWLW [FATE1] | 3.2 ± 0.37 | 2.77 ± 0.26 |  |  |
| TYEPFCKVPVITSSKEEQKLIATS [KCTD10] | 4.27 ± 0.2 | 4.16 ± 0.37 |  |  |
| TYVSPPGNEEEESKIFTTLDPASL [DDIT3] | 4.91 ± 0.26 | 5.08 ± 0.065 |  |  |
| VAEKVVVITKHNDDEQYAWESSAG [HSP90AB1] | 4.53 ± 0.11 | 4.34 ± 0.29 |  |  |
| VAHVKHLSASQKALKEKEKASWSS [COX4I1] | 3.57 ± 0.4 | 3.83 ± 0.34 |  |  |
| VCKGLPQHEEICLGLFTLILTEPA [INTS3] | 2.53 ± 0.47 | 2.5 ± 0.48 |  |  |
| VDFSLSGRLLFAGYNDYTINVWDV [GNB5] | 3.23 ± 0.53 | 2.58 ± 0.61 |  |  |
| VERKRLRNRLAATKCRKRKLERIA [JUNB] | 4.07 ± 0.42 | 4.2 ± 0.34 |  |  |
| VETARSHQRSSSESYTQSFQSRKP [PI4K2A] | 5 ± 0.33 | 5.04 ± 0.29 |  |  |
| VFKQAKDKVSDGVTKSPEKRSSLP [MAP2] | 4.92 ± 0.16 | 4.93 ± 0.099 |  |  |
| VFLIIYYLDPSVLSGVSCFVMFLC [ARL6IP1] | 2.64 ± 0.29 | 2.91 ± 0.91 |  |  |
